US20030148343

Tested on: RSG1.2 peptide (synthetic)
Experiment: FP
Conditions: about fifty fold greater RNA concentration than RRE1 required for similar polarization; 150 mM KCl, 5 mM MgCl2

“GGCUGGUAUGGGCGCAGCGUCAAUGACGCUGCGCCCAGGCCAGCC [RRE2 hairpin]” was tested, and the fold-higher RNA concentration than RRE1 for similar polarization was 50 fold.
